Test results as given in patent US20230250170A1.
Like-named read-outs stand apart in the source and are kept apart here.

Legend:
[1] = molecular target: human NPR1 on HEK293/hNPR1 cells (human) (UniProt P16066)
[2] = molecular target: human NPR1 on HEK293/hNPR1 cells (human) (UniProt P16066); remark: listed apart in the source
[3] = molecular target: human NPR1 on HEK293/hNPR1 cells (human) (UniProt P16066); remark: listed apart in the source
[4] = molecular target: human NPR1 on HEK293/hNPR1 cells (human) (UniProt P16066); remark: listed apart in the source

Chain of human NPR1 on HEK293/hNPR1 cells (human) (P16066 33-1061): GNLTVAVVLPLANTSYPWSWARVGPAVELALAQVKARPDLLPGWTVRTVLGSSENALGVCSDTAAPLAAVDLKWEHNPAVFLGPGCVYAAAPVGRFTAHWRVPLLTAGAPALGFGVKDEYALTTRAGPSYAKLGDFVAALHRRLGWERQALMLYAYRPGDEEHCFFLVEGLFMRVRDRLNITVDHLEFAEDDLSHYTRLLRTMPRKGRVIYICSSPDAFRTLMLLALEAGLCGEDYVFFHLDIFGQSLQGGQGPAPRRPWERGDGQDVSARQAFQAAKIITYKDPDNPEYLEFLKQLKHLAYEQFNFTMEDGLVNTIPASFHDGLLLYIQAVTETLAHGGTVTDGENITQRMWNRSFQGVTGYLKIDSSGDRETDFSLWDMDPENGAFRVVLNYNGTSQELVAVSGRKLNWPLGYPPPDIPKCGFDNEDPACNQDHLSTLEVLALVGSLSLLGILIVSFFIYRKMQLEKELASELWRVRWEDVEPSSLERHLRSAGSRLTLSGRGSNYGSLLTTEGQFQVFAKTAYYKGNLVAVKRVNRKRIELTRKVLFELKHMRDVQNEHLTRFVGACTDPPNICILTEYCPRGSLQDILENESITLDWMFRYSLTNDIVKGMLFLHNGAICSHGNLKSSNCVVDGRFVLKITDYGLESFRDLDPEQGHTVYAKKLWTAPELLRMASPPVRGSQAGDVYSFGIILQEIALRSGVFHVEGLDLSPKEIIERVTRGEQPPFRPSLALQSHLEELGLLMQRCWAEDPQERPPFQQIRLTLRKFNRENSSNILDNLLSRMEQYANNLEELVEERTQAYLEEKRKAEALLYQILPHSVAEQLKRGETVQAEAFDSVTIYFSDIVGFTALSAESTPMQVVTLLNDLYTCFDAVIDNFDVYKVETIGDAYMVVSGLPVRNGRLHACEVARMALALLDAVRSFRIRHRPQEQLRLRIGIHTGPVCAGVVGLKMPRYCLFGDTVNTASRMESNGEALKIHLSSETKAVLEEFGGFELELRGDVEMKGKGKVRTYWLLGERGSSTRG

EC50 (read off the curve); cGMP accumulation, HEK293/hNPR1 cells, ANP after pre-treatment with 50 nM H4H22034N [1]: 0.6 nM | EC50 (read off the curve); cGMP accumulation, HEK293/hNPR1 cells, ANP after pre-treatment with 150 nM H4H22034N [1]: 0.6 nM | EC50 (read off the curve); cGMP accumulation, HEK293/hNPR1 cells, ANP after pre-treatment with 450 nM H4H22034N [1]: 0.6 nM | EC50 (read off the curve); cGMP accumulation, HEK293/hNPR1 cells, ANP after pre-treatment with 50 nM REGN7541 [2]: 0.2 nM | EC50 (read off the curve); cGMP accumulation, HEK293/hNPR1 cells, ANP after pre-treatment with 150 nM REGN7541 [2]: 0.8 nM | EC50 (read off the curve); cGMP accumulation, HEK293/hNPR1 cells, ANP alone (dilution buffer) [2]: 0.07 nM | EC50 (read off the curve); cGMP accumulation, HEK293/hNPR1 cells, ANP after pre-treatment with 50 nM REGN7548 [3]: 0.7 nM | EC50 (read off the curve); cGMP accumulation, HEK293/hNPR1 cells, ANP alone (dilution buffer) [3]: 0.09 nM | EC50 (read off the curve); cGMP accumulation, HEK293/hNPR1 cells, ANP after pre-treatment with 50 nM REGN7544 [4]: 0.3 nM | EC50 (read off the curve); cGMP accumulation, HEK293/hNPR1 cells, ANP after pre-treatment with 150 nM REGN7544 [4]: 0.8 nM | EC50 (read off the curve); cGMP accumulation, HEK293/hNPR1 cells, ANP after pre-treatment with 450 nM REGN7544 [4]: 40 nM | EC50 (read off the curve); cGMP accumulation, HEK293/hNPR1 cells, ANP alone (dilution buffer) [4]: 0.1 nM
Binder: SLRRSSCFGGRMDRIGAQSGLGCNSFRY (ligand, UniProt P01160 124-151, looked up) [atrial natriuretic peptide (ANP)]
